According to the supplement of paper PMC10567573:

B1: RIPK4 (parent)
chain: RERMELLEEAKKMEMAKFRYILPV
B2: MTMR15 (parent)
chain: FSPDFTLRNTLKSTSEDSLVKQEC

Variants of: B1
Assay: protein stability index of a GFP-peptide fusion (GPS, HEK-293T) (PSI 1-6); higher = more stable
Conditions: c terminus: a fixed tail appended
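Note: lentivirally expressed fusions sorted by FACS into six bins by GFP to DsRed ratio, PSI derived from sequencing read proportions per bin multiplied by bin number.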

Protein stability index: each site, then its substitutions
V24: R 3.65 | F 3.16 | D 3.64 | S 3.7 | E 4.32 | M 3.68 | K 3.58 | T 3.78 | H 3.24
L22: R 4.07 | Q 3.69 | N 3.07 | S 3.28 | M 3.57 | W 2.53 | P 4.95
P23: S 3.96 | K 1.83 | V 2.29 | H 2.9 | C 3.02 | R 3.69 | I 2.09 | N 1.63 | M 2 | D 2.03 | Q 1.69 | E 2.7 | G 1.95

Variants of: B2
Assay: as above
Conditions: c terminus: a fixed tail appended

Protein stability index, by site and new letter:
L11: V 2.26 | W 1.81 | S 2.04 | F 2.47 | Y 1.75 | N 1.94 | A 1.57 | P 2.11 | E 2.25 | I 2.83 | G 2.11 | R 1.81 | K 2 | H 1.76 | T 1.81 | Q 2.06 | M 2.31 | D 2.25 | C 2.42
F1: P 5.1 | S 4.81 | E 5.32 | A 3.9 | K 5 | W 4.39 | G 5.09 | T 5.28 | D 5.25 | I 4.71 | R 4.98 | H 4.96 | M 4.87 | L 5.21 | C 4.17 | Y 2.04 | V 4.83 | N 5.19 | Q 4.96
K12: E 2.67 | D 2.27 | S 2.04 | A 1.79 | M 1.81 | H 1.71 | I 2.6 | R 1.71 | N 1.41 | P 1.77 | Y 2.38 | Q 1.92 | L 2.28 | V 2.14 | F 2.03 | G 2.24 | C 2.34 | T 1.67 | W 3.33
R8: N 1.58 | Q 2.62 | Y 2.44 | P 2.67 | M 1.77 | W 2.17 | C 2.75 | A 2.01 | T 1.73 | F 1.89 | K 1.7 | G 1.79 | V 2.14 | L 2.36 | I 2.88 | S 1.9 | E 3.28 | D 2.68 | H 1.89
T10: D 1.99 | H 3.86 | Y 2.27 | N 1.87 | P 1.7 | W 2.32 | E 2.37 | C 2.14 | K 1.72 | A 2.16 | M 2.11 | V 1.76 | I 2.64 | L 2.61 | S 1.82 | Q 1.59 | R 2.15 | F 2.7 | G 2.03
F5: S 3.19 | Y 2.61 | G 1.99 | V 3.56 | W 3.6 | I 3.65 | L 3.54 | A 3.75 | E 4.83 | H 3.52 | T 3.17 | D 4.35 | R 3.26 | P 3.59 | K 3.79 | M 3.62 | N 3.82 | C 3.42 | Q 3.5
E16: A 1.67 | Y 1.83 | M 2.29 | W 2.38 | F 2.48 | G 1.93 | K 1.75 | L 1.75 | V 2.68 | H 2.25 | R 1.76 | D 2.54 | T 1.57 | I 1.91 | N 1.93 | C 1.98 | Q 2.41 | S 2.1 | P 2.38
T6: Q 2.24 | M 1.92 | V 1.82 | I 3.13 | G 2.63
